The target of this experiment is T1, Extant nitrogenase molybdenum-iron protein alpha chain, NifD (A. vinelandii) (Azotobacter vinelandii, UniProt P07328 1-492).
T1 sequence (looked up): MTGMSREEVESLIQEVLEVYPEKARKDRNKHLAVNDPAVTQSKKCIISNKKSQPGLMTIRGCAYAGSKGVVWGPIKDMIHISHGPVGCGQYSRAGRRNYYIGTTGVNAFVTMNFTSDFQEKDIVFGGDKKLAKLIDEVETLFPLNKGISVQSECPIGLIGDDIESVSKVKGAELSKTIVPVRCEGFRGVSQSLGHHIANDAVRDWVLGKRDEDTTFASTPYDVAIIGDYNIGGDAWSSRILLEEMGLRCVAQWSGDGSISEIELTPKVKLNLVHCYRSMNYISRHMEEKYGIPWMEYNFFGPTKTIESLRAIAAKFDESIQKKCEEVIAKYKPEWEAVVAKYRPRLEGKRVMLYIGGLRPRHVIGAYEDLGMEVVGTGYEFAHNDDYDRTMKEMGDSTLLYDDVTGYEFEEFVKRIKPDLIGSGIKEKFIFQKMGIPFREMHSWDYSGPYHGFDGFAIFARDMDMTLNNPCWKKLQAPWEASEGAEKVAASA
In words: affinity co-purification.

B1: Extant nitrogenase molybdenum-iron protein beta chain, NifK (A. vinelandii) (enzyme, Azotobacter vinelandii, UniProt P07329 1-523, looked up)
chain: MSQQVDKIKASYPLFLDQDYKDMLAKKRDGFEEKYPQDKIDEVFQWTTTKEYQELNFQREALTVNPAKACQPLGAVLCALGFEKTMPYVHGSQGCVAYFRSYFNRHFREPVSCVSDSMTEDAAVFGGQQNMKDGLQNCKATYKPDMIAVSTTCMAEVIGDDLNAFINNSKKEGFIPDEFPVPFAHTPSFVGSHVTGWDNMFEGIARYFTLKSMDDKVVGSNKKINIVPGFETYLGNFRVIKRMLSEMGVGYSLLSDPEEVLDTPADGQFRMYAGGTTQEEMKDAPNALNTVLLQPWHLEKTKKFVEGTWKHEVPKLNIPMGLDWTDEFLMKVSEISGQPIPASLTKERGRLVDMMTDSHTWLHGKRFALWGDPDFVMGLVKFLLELGCEPVHILCHNGNKRWKKAVDAILAASPYGKNATVYIGKDLWHLRSLVFTDKPDFMIGNSYGKFIQRDTLHKGKEFEVPLIRIGFPIFDRHHLHRSTTLGYEGAMQILTTLVNSILERLDEETRGMQATDYNHDLVR
Take B1: the “stoichiometry N” value is 0.93 D:K.
